Experimental data published in US20240294622A1.

Key:
[1] = target: hGREM1 (source and construct not stated) (human) (UniProt O60565); test: ELISA on hGREM1
[2] = target: HGREM1-His (ACRO) (human) (UniProt O60565); test: ELISA, binding to hGremlin-his
[3] = target: HGREM1-His (ACRO) (human) (UniProt O60565); test: competition ELISA, Gremlin-his binding to coated BMP7
[4] = target: HGREM1-His (ACRO) (human) (UniProt O60565); test: blocking ELISA, Human Gremlin-1 binding to BMP2; column OD450
[5] = target: HGREM1-His (ACRO) (human) (UniProt O60565); test: blocking ELISA, Human Gremlin-1 binding to BMP4; column OD450
[6] = target: HGREM1-His (ACRO) (human) (UniProt O60565); test: blocking ELISA, Human Gremlin-1 binding to BMP7; column OD450
[7] = target: HGREM1-His (ACRO) (human) (UniProt O60565); test: blocking ELISA, Human Gremlin-1 binding to BMP2; column Percentage
[8] = target: HGREM1-His (ACRO) (human) (UniProt O60565); test: blocking ELISA, Human Gremlin-1 binding to BMP4; column Percentage
[9] = target: HGREM1-His (ACRO) (human) (UniProt O60565); test: blocking ELISA, Human Gremlin-1 binding to BMP7; column Percentage
[10] = target: HGREM1-His (ACRO) (human) (UniProt O60565); test: Fortebio: Gremlin-his loaded (2ug/ml) on the sensor, antibody at 100, 50 and 25 nM
[11] = target: HGREM1-His (ACRO) (human) (UniProt O60565); test: Fortebio: Gremlin-his loaded (2ug/ml), antibody at 25 nM; unit from the axis of the sensorgram
[12] = target: HGREM1-His (ACRO) (human) (UniProt O60565); test: Fortebio: Gremlin-his loaded (2ug/ml), antibody at 50 nM; unit from the axis of the sensorgram
[13] = target: HGREM1-His (ACRO) (human) (UniProt O60565); test: Fortebio: Gremlin-his loaded (2ug/ml), antibody at 100 nM; unit from the axis of the sensorgram
[14] = target: HGREM1-His (ACRO) (human) (UniProt O60565); test: ELISA: antibody coated, Gremlin-his titrated, anti-his-HRP; the concentration is that of Gremlin-his
[15] = target: HGREM1-His (ACRO) (human) (UniProt O60565); test: Fortebio: Gremlin-his loaded (2ug/ml) on the sensor, antibody at 100, 50 and 25 nM; kdis(1/s)

Sequence of HGREM1-His (ACRO) (human) (O60565 25-184): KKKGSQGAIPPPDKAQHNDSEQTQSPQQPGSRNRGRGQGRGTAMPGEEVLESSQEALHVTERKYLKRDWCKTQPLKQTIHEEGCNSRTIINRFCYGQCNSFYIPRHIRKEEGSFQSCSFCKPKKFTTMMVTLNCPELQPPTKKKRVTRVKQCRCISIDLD
Sequence of hGREM1 (source and construct not stated) (human) (O60565 25-184 limits assumed): as the sequence (O60565 25-184) above

B1: benchmark antibody 6245P (antibody, from another filing, V domains shown)
VH: EVQLVESGGGLVQPGGSLRLSCAASGFTFNSFWMSWVRQAPGKGLEWVANIKQDGSEKYYVDSVKGRFTISRDNAKNSVYLQMNSLRAEDTAVYYCARDLVTSFDYWGQGTLVTVSS
VL: DIQMTQSPSSLSASVGDRVTITCQASQDINNYLNWYQQKPGKAPKLLIYDASYLETGVPSGFSGSGSGTDFTFTISSLQPEDIATYYCQQYDSLPYTFGQGTKLEIK
Q: How did the EC50 [1] turn out when B1 was run?
A: 0.115 µg/mL

Q: And the EC50 [2]?
A: 0.0575 µg/mL

Q: And the maximal blocking percentage [3]?
A: < 30%

Q: What about the IC50 [4] of the same binder?
A: 0.797 µg/mL

Q: And the IC50 [5]?
A: 0.638 µg/mL

Q: And the IC50 [6]?
A: 0.536 µg/mL

Q: And the IC50 [7]?
A: 0.797 µg/mL

Q: What about the IC50 [8] of the same binder?
A: 0.638 µg/mL

Q: What about the IC50 [9] of the same binder?
A: 0.536 µg/mL

Q: What about the Kd [10] of the same binder?
A: 2.58 nM

Q: What about the kon [10] of the same binder?
A: 338000 M⁻¹ s⁻¹

Q: What about the Response [11] of the same binder?
A: 0.313 nm

Q: And the Response [12]?
A: 0.513 nm

Q: What about the Response [13] of the same binder?
A: 0.649 nm

Q: And the EC50 (read off the curve) [14]?
A: 0.01 µg/mL

Q: And the koff [15]?
A: 0.00087 s⁻¹
